Measured values: the supplement of paper PMC9112550, “Optimization of the antimicrobial peptide Bac7 by deep mutational scanning” (BMC Biology, 2022)

Test system: Escherichia coli TOP10
Experiment: shrunken log2 fold change of peptide-encoding DNA abundance (4.5 h post-induction vs induction); higher = less antimicrobial activity (less host growth inhibition)
Settings: time post-induction: 4.5 h; library: site-saturation at positions 5, 18, 19, 20
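Note: peptides expressed intracellularly from a pBAD plasmid library in pooled LB shake-flask culture, induced with 0.3% L-arabinose, DNA abundance read by NGS, three biological replicates, DESeq2 with apeglm shrinkage.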

Sequence	shrunken log2 fold change
RRIRYRPPRLPRPRPRPLLWPRP	-0.246
RRIRHRPPRLPRPRPRPMINPRP	-0.305
RRIRNRPPRLPRPRPRPQPEPRP	0.0878
RRIRPRPPRLPRPRPRPLTLPRP	0.121
RRIRLRPPRLPRPRPRPFDVPRP	-0.0798
RRIRNRPPRLPRPRPRPRPCPRP	0.0913
RRIRQRPPRLPRPRPRPHVVPRP	-0.086
RRIRNRPPRLPRPRPRPKPAPRP	0.601
RRIRKRPPRLPRPRPRPSWQPRP	-0.212
RRIRQRPPRLPRPRPRPPCIPRP	-0.053
RRIRHRPPRLPRPRPRPGPAPRP	0.871
RRIRARPPRLPRPRPRPIIIPRP	-0.235
RRIRDRPPRLPRPRPRPSPVPRP	0.0438
RRIRWRPPRLPRPRPRPQMDPRP	-0.12
RRIRDRPPRLPRPRPRPMIDPRP	0.141
RRIRVRPPRLPRPRPRPPRYPRP	0.317
RRIRWRPPRLPRPRPRPAKYPRP	-0.183
RRIRLRPPRLPRPRPRPRFYPRP	0.074
RRIRDRPPRLPRPRPRPAHYPRP	0.0963
RRIRPRPPRLPRPRPRPKVAPRP	0.02
RRIRQRPPRLPRPRPRPRETPRP	0.248
RRIRSRPPRLPRPRPRPALHPRP	0.16
RRIRARPPRLPRPRPRPVKWPRP	3.06
RRIRWRPPRLPRPRPRPIQAPRP	-0.0237
RRIRMRPPRLPRPRPRPITHPRP	0.0509

Sequence	shrunken log2 fold change
RRIRCRPPRLPRPRPRPDQHPRP	0.0432
RRIRRRPPRLPRPRPRPPWMPRP	0.269
RRIRRRPPRLPRPRPRPAWMPRP	0.24
RRIRLRPPRLPRPRPRPLAPPRP	0.274
RRIRYRPPRLPRPRPRPIKEPRP	0.0062
RRIRSRPPRLPRPRPRPRPEPRP	0.507
RRIRQRPPRLPRPRPRPQHWPRP	0.0488
RRIRKRPPRLPRPRPRPSSMPRP	-0.0241
RRIRPRPPRLPRPRPRPAFVPRP	0.149
RRIRYRPPRLPRPRPRPGPIPRP	-0.0295
RRIRHRPPRLPRPRPRPDCEPRP	-0.0807
RRIRIRPPRLPRPRPRPTIPPRP	-0.463
RRIRQRPPRLPRPRPRPSQVPRP	-0.23
RRIRPRPPRLPRPRPRPYRIPRP	-0.384
RRIRDRPPRLPRPRPRPFKAPRP	-0.334
RRIRCRPPRLPRPRPRPAAVPRP	0.346
RRIRIRPPRLPRPRPRPPEWPRP	0.0764
RRIRNRPPRLPRPRPRPAKQPRP	-0.0201
RRIRRRPPRLPRPRPRPNWEPRP	-0.0176
RRIRARPPRLPRPRPRPCQTPRP	-0.0627
RRIRTRPPRLPRPRPRPCMFPRP	-0.515
RRIRDRPPRLPRPRPRPVIHPRP	0.0491
RRIRCRPPRLPRPRPRPGQPPRP	0.126
RRIRTRPPRLPRPRPRPQRTPRP	-0.296
RRIRHRPPRLPRPRPRPPGMPRP	0.0769

Sequence	shrunken log2 fold change
RRIRWRPPRLPRPRPRPMMRPRP	1.08
RRIRDRPPRLPRPRPRPTARPRP	0.546
RRIRLRPPRLPRPRPRPMTQPRP	0.162
RRIRSRPPRLPRPRPRPLWVPRP	0.0823
RRIRIRPPRLPRPRPRPTSWPRP	0.0769
RRIRNRPPRLPRPRPRPIDEPRP	-0.0586
RRIRHRPPRLPRPRPRPSDNPRP	0.129
RRIRMRPPRLPRPRPRPDFYPRP	0.06
RRIRDRPPRLPRPRPRPVLAPRP	0.805
RRIRPRPPRLPRPRPRPVCSPRP	-0.168
RRIRGRPPRLPRPRPRPDEWPRP	0.757
RRIRGRPPRLPRPRPRPSEWPRP	0.393
RRIRTRPPRLPRPRPRPCFVPRP	-0.454
RRIRLRPPRLPRPRPRPKSYPRP	-0.592
RRIRLRPPRLPRPRPRPQTEPRP	-0.0579
RRIRQRPPRLPRPRPRPSFQPRP	-0.467
RRIRERPPRLPRPRPRPFGMPRP	-0.0947
RRIRPRPPRLPRPRPRPEQIPRP	0.0118
RRIRLRPPRLPRPRPRPSMQPRP	-0.205
RRIRPRPPRLPRPRPRPRMKPRP	-0.285
RRIRKRPPRLPRPRPRPRNTPRP	-0.0381
RRIRWRPPRLPRPRPRPQVQPRP	0.115
RRIRLRPPRLPRPRPRPLAVPRP	0.139
RRIRSRPPRLPRPRPRPSKPPRP	-0.432
RRIRTRPPRLPRPRPRPTHHPRP	-0.0136

Sequence	shrunken log2 fold change
RRIRWRPPRLPRPRPRPYYPPRP	-1.09
RRIRSRPPRLPRPRPRPGLFPRP	0.163
RRIRNRPPRLPRPRPRPVRPPRP	0.555
RRIRVRPPRLPRPRPRPINMPRP	-0.602
RRIRQRPPRLPRPRPRPVPMPRP	0.132
RRIRHRPPRLPRPRPRPAVQPRP	-0.0994
RRIRDRPPRLPRPRPRPWRRPRP	0.0906
RRIRCRPPRLPRPRPRPCMFPRP	-0.625
RRIRMRPPRLPRPRPRPTALPRP	0.33
RRIRWRPPRLPRPRPRPHWHPRP	-0.0347
RRIRPRPPRLPRPRPRPHCYPRP	-0.2
RRIRNRPPRLPRPRPRPHYRPRP	-0.0488
RRIRWRPPRLPRPRPRPWFQPRP	-0.125
RRIRWRPPRLPRPRPRPIENPRP	0.0363
RRIRRRPPRLPRPRPRPIVVPRP	0.115
RRIRSRPPRLPRPRPRPDRRPRP	-0.0434
RRIRLRPPRLPRPRPRPPSPPRP	0.58
RRIRPRPPRLPRPRPRPTGMPRP	0.141
RRIRLRPPRLPRPRPRPLDEPRP	-0.0999
RRIRERPPRLPRPRPRPAHNPRP	-0.0074
RRIRKRPPRLPRPRPRPGLAPRP	0.977
RRIRVRPPRLPRPRPRPSYLPRP	0.753
RRIRARPPRLPRPRPRPAIRPRP	0.422
RRIRTRPPRLPRPRPRPPTEPRP	0.498
RRIRERPPRLPRPRPRPKWGPRP	-0.0917

Sequence	shrunken log2 fold change
RRIRWRPPRLPRPRPRPLNQPRP	-0.0739
RRIRTRPPRLPRPRPRPTFVPRP	-0.262
RRIRFRPPRLPRPRPRPQAEPRP	-0.263
RRIRARPPRLPRPRPRPFIFPRP	0.419
RRIRSRPPRLPRPRPRPPPEPRP	0.852
RRIRCRPPRLPRPRPRPHRKPRP	-0.0176
RRIRCRPPRLPRPRPRPQQPPRP	0.345
RRIRSRPPRLPRPRPRPCLYPRP	-0.198
RRIRYRPPRLPRPRPRPWGRPRP	-0.186
RRIRLRPPRLPRPRPRPNLYPRP	-0.38
RRIRYRPPRLPRPRPRPSVAPRP	-0.183
RRIRLRPPRLPRPRPRPFILPRP	-0.978
RRIRMRPPRLPRPRPRPFIVPRP	-0.414
RRIRARPPRLPRPRPRPDGLPRP	0.292
RRIRRRPPRLPRPRPRPNAPPRP	0.675
RRIRQRPPRLPRPRPRPDEKPRP	0.02
RRIRQRPPRLPRPRPRPGPVPRP	-0.0186
RRIRFRPPRLPRPRPRPGCKPRP	-0.222
RRIRTRPPRLPRPRPRPWLPPRP	-0.164
RRIRFRPPRLPRPRPRPNVMPRP	-0.166
RRIRERPPRLPRPRPRPNRFPRP	0.0105
RRIRSRPPRLPRPRPRPADSPRP	-0.176
RRIRVRPPRLPRPRPRPKVKPRP	0.0531
RRIRYRPPRLPRPRPRPDGAPRP	-0.0116
RRIRRRPPRLPRPRPRPIMDPRP	0.01

Sequence	shrunken log2 fold change
RRIRYRPPRLPRPRPRPMYYPRP	-0.269
RRIRPRPPRLPRPRPRPWMSPRP	-0.166
RRIRCRPPRLPRPRPRPLCKPRP	-0.541
RRIRPRPPRLPRPRPRPVGKPRP	-0.00576
RRIRSRPPRLPRPRPRPGEAPRP	0.287
RRIRCRPPRLPRPRPRPMKHPRP	-0.486
RRIRIRPPRLPRPRPRPCWLPRP	-0.196
RRIRPRPPRLPRPRPRPHFAPRP	0.284
RRIRARPPRLPRPRPRPWSHPRP	-0.186
RRIRMRPPRLPRPRPRPHSFPRP	0.0932
RRIRCRPPRLPRPRPRPGFQPRP	-0.356
RRIRCRPPRLPRPRPRPENEPRP	0.113
RRIRYRPPRLPRPRPRPAHFPRP	0.0784
RRIRMRPPRLPRPRPRPEAHPRP	3.52
RRIRPRPPRLPRPRPRPIHLPRP	-0.146
RRIRSRPPRLPRPRPRPYDPPRP	-1
RRIRTRPPRLPRPRPRPKPAPRP	0.0421
RRIRWRPPRLPRPRPRPHSDPRP	0.0062
RRIRGRPPRLPRPRPRPWPQPRP	0.498
RRIRFRPPRLPRPRPRPCIKPRP	-0.0867
RRIRTRPPRLPRPRPRPYFMPRP	-0.836
RRIRGRPPRLPRPRPRPHPVPRP	0.412
RRIRYRPPRLPRPRPRPCKIPRP	-0.116
RRIRMRPPRLPRPRPRPPFKPRP	0.173
RRIRMRPPRLPRPRPRPFNRPRP	-0.00136
